Experimental findings from paper PMC12032115 are described below.

This data set has as its target PTPRF (UniProt P10586). In words: flow cytometry. A general note: In flow cytometry, cells or beads pass a laser one at a time.

Chain of PTPRF (P10586 30-1907): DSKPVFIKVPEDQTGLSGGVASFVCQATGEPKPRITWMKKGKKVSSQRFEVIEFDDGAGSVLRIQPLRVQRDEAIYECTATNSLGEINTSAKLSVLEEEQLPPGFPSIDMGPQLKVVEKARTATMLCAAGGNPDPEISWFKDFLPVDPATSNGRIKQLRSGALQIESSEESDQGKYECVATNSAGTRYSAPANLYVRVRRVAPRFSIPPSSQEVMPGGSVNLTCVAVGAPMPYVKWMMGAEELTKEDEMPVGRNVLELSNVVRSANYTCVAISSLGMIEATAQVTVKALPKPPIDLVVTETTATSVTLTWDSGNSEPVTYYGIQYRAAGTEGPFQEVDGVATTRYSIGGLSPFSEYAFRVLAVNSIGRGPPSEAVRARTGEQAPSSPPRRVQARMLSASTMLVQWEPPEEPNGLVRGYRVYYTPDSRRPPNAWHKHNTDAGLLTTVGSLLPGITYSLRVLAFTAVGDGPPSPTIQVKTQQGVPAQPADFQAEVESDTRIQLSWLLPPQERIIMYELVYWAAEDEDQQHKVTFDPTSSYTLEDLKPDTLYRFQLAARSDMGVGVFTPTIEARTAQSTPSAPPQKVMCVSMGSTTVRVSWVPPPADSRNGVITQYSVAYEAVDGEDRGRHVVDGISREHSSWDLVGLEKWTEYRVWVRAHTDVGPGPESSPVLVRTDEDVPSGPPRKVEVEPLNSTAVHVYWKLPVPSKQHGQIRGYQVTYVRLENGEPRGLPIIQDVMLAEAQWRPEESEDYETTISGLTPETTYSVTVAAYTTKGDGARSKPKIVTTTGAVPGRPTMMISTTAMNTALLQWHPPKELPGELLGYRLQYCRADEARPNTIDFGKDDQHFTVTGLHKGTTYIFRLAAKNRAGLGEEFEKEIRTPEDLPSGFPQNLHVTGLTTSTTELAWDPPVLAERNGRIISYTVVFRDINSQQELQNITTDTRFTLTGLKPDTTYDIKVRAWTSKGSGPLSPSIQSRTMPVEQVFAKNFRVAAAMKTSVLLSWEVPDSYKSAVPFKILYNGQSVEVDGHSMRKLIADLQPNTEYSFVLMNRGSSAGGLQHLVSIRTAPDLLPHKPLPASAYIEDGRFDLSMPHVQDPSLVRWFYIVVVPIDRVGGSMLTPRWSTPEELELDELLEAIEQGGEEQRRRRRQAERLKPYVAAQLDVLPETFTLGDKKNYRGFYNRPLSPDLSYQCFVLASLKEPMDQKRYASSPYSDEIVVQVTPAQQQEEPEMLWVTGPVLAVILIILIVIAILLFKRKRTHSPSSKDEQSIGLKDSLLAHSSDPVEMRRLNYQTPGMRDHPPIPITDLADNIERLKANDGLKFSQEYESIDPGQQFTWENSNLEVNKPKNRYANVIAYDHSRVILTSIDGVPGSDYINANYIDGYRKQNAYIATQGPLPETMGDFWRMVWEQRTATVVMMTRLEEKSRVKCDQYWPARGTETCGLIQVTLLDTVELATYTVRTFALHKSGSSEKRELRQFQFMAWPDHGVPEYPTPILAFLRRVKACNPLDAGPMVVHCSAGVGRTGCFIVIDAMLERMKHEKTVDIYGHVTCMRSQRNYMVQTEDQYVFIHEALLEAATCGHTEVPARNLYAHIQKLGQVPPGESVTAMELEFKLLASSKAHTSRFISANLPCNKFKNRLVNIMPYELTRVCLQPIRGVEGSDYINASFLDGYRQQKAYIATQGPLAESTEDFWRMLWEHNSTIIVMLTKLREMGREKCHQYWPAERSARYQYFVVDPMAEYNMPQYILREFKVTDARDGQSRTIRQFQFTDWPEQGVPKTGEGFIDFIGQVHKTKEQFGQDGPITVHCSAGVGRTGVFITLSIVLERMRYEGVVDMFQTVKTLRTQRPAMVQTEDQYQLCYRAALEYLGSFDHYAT

Turning to “TGGAGGATATAGGTTGGCTTAGGTGGCTTTGCGTTGGGTGTGGTGCATATCCTCCA [ZAJ4a]”, the Kd (in general, the equilibrium constant for the complex coming apart) worked out at 23.3 nM. This lies in the double-digit nanomolar range.
